Measured values as given in patent publication US20160200782A1 (MOERAE MATRIX, published 2016).

T1: PKCµ(h) (human, UniProt Q15139 1-912, limits assumed)
T1 sequence (looked up): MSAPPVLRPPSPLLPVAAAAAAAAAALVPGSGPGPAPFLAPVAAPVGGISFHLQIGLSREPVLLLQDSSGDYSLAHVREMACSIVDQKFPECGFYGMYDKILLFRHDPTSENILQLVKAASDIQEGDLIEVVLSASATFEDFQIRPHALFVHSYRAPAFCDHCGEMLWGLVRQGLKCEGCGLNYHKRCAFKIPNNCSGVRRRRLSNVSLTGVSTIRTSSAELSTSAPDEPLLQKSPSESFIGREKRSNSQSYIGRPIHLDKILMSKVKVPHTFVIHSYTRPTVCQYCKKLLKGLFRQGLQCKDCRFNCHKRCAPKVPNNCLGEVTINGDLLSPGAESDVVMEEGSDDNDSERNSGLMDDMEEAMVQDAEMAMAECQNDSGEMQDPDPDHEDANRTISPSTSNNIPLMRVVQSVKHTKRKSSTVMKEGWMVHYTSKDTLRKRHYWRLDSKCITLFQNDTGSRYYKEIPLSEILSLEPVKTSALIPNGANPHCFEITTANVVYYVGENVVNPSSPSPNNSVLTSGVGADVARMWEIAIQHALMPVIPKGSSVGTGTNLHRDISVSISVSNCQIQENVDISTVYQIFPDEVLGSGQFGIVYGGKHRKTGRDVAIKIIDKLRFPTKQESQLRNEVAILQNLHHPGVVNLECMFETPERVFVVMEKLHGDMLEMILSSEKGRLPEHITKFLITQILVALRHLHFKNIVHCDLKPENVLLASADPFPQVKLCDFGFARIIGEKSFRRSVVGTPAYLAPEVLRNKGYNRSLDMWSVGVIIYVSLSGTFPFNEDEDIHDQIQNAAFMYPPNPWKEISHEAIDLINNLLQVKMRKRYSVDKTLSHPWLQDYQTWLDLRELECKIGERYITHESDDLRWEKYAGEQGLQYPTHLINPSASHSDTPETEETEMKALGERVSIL

T2: SGK2(h) (human, UniProt Q9HBY8 1-367, limits assumed)
T2 sequence (looked up): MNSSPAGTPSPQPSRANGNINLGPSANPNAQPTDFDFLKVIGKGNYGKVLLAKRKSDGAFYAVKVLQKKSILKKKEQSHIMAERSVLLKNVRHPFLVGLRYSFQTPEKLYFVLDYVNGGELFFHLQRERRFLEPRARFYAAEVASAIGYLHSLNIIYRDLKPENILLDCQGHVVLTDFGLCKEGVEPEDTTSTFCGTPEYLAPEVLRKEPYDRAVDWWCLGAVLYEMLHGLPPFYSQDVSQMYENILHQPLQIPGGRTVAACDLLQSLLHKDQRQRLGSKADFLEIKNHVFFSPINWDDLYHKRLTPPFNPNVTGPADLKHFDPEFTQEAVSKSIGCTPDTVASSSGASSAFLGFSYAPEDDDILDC

T3: Txk(h) (human, UniProt P42681 1-527, limits assumed)
T3 sequence (looked up): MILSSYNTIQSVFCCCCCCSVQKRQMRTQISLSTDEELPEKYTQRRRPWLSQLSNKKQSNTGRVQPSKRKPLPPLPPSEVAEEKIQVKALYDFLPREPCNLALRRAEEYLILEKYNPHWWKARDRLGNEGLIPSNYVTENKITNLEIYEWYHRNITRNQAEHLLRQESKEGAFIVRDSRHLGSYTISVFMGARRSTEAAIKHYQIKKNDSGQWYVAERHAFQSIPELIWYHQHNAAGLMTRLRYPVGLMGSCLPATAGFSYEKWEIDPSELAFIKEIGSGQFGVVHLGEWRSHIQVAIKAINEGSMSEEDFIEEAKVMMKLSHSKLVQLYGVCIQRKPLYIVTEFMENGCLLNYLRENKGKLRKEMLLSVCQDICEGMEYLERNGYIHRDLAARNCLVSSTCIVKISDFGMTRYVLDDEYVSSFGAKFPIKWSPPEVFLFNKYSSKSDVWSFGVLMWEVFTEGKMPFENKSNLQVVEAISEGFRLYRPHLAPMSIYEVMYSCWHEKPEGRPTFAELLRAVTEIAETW

T4: TSSK1(h) (human, UniProt Q9BXA7 1-367)
T4 sequence (looked up): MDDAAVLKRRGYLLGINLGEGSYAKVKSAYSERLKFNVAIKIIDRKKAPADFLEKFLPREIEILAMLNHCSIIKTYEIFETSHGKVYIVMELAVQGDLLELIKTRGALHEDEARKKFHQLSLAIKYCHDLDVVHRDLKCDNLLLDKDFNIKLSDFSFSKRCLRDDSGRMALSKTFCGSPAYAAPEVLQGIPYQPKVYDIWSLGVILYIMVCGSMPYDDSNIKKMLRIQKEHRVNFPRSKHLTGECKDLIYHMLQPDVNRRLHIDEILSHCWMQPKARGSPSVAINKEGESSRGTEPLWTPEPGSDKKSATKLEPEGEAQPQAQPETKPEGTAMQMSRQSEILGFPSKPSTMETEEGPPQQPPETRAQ


How the values were obtained:
Experiment in all cases: cell-based or functional assay
HIPK3(h) = HIPK3(h) (human, UniProt Q9H422 161-562, limits assumed)
Sequence of HIPK3(h) (Q9H422 161-562 limits assumed): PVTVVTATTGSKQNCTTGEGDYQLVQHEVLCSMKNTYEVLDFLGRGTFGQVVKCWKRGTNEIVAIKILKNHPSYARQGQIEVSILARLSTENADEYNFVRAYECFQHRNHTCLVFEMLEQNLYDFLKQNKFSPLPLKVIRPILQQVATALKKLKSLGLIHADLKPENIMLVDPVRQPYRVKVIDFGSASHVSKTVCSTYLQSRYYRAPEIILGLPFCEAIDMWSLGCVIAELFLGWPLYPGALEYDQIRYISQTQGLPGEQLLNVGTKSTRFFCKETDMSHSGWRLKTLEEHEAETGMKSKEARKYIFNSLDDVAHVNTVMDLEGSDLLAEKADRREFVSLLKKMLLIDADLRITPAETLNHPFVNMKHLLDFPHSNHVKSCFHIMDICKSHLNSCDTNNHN

CaMKIIβ(h) = CaMKIIβ(h) (human, UniProt Q13554 1-666, limits assumed)
Sequence of CaMKIIβ(h) (Q13554 whole entry): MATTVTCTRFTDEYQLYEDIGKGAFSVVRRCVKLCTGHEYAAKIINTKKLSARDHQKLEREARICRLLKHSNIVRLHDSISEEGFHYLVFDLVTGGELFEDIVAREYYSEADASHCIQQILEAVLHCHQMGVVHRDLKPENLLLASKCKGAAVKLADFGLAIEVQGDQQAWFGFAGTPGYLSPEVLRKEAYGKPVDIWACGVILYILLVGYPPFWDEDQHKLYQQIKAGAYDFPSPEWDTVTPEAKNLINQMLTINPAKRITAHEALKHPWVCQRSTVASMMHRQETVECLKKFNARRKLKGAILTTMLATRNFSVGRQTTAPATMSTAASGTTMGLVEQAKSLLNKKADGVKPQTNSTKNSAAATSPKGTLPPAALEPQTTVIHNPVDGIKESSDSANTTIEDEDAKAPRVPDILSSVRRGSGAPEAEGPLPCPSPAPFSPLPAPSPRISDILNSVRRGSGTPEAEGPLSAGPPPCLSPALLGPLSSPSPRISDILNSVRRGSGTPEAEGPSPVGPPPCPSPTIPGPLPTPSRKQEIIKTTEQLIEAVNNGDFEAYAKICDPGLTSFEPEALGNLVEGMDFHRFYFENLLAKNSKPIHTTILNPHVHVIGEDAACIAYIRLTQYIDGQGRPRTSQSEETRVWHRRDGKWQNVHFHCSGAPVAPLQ

PDGFRα(D842V)(h) = PDGFRα(D842V)(h) (human, UniProt P16234 550-1089, limits assumed)
Sequence of PDGFRα(D842V)(h) (P16234 550-1089 D842V limits assumed): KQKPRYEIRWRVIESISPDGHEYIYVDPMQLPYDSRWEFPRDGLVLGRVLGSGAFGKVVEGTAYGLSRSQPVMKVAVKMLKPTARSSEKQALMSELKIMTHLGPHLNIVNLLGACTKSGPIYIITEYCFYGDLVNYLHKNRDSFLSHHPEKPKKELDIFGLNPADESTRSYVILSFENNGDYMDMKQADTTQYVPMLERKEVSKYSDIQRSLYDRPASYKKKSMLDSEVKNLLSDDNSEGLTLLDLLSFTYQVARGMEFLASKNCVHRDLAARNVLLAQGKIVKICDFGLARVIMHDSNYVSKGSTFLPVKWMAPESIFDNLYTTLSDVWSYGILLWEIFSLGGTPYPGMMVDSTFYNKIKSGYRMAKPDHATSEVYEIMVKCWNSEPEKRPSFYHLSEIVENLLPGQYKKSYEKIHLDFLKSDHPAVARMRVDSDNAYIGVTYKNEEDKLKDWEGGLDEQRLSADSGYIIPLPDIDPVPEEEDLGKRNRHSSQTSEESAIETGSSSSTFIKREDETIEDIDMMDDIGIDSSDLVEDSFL

PKCµ(h) = target: T1, PKCµ(h)
SGK2(h) = target: T2, SGK2(h)
Yes(h) = Yes(h) (human, UniProt P07947 1-543, limits assumed)
Sequence of Yes(h) (P07947 whole entry): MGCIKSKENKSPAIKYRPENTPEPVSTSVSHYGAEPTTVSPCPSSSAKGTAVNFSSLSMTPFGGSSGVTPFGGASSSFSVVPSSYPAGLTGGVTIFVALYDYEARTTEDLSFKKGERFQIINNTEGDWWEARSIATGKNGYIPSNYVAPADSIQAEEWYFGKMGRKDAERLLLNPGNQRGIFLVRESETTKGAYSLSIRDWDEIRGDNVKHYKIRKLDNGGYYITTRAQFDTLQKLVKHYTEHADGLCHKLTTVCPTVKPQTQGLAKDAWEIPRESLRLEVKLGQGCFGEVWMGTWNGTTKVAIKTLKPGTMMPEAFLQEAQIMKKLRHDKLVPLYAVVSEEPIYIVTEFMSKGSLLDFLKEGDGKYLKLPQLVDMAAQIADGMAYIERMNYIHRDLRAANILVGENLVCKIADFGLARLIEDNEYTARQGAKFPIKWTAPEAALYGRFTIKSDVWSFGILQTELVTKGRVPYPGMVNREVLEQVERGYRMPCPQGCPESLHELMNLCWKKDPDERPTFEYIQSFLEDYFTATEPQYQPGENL

Txk(h) = target: T3, Txk(h)
EphA7(h) = EphA7(h) (human, UniProt Q15375 577-998, limits assumed)
Sequence of EphA7(h) (Q15375 577-998 limits assumed): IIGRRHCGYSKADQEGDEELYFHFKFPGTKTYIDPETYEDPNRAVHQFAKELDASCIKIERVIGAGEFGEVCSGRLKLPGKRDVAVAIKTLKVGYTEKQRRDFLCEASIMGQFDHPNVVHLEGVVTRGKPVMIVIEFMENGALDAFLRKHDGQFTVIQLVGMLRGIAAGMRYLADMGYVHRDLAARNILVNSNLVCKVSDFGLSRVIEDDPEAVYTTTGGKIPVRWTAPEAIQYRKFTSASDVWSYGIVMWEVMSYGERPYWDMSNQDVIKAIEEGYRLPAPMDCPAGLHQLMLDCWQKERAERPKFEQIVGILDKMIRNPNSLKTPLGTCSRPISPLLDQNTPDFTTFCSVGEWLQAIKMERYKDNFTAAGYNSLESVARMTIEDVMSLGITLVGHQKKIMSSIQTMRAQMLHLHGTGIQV

Snk(h) = Snk(h) (human, UniProt Q9NYY3 1-685, limits assumed)
Sequence of Snk(h) (Q9NYY3 whole entry): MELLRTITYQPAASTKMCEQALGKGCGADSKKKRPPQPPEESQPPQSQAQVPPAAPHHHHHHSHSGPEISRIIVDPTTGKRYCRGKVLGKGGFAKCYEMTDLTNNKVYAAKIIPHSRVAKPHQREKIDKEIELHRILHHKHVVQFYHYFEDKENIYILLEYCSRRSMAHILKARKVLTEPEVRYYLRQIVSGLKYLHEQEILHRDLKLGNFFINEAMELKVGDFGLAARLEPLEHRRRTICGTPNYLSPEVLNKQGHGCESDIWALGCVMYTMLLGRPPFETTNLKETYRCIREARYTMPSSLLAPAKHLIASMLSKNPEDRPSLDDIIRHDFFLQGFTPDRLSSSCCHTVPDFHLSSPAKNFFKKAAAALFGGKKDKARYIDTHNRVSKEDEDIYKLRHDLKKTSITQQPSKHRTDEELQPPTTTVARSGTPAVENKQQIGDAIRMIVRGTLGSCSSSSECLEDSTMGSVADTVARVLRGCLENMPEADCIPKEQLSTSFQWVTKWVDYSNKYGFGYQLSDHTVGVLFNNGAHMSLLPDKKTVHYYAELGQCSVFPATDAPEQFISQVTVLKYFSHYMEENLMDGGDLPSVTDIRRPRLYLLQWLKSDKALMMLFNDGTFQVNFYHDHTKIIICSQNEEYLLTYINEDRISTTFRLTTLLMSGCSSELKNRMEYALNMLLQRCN

TSSK1(h) = target: T4, TSSK1(h)
CSK(h) = CSK(h) (human, UniProt P41240 1-450)
Sequence of CSK(h) (P41240 whole entry): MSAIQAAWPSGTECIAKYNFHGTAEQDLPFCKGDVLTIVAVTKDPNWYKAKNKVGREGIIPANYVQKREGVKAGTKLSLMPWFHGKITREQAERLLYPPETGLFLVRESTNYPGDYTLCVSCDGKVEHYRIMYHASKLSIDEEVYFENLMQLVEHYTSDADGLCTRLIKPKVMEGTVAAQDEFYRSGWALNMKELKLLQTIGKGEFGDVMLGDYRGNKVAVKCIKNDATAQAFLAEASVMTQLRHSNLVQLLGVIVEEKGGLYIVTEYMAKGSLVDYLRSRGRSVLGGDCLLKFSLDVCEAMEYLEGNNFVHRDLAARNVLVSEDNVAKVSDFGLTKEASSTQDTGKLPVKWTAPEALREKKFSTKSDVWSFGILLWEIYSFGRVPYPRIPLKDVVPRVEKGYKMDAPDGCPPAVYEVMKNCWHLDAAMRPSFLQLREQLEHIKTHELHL

MAPK2(h) = MAPK2(h) (human, UniProt P28482 1-360)
Sequence of MAPK2(h) (P28482 whole entry): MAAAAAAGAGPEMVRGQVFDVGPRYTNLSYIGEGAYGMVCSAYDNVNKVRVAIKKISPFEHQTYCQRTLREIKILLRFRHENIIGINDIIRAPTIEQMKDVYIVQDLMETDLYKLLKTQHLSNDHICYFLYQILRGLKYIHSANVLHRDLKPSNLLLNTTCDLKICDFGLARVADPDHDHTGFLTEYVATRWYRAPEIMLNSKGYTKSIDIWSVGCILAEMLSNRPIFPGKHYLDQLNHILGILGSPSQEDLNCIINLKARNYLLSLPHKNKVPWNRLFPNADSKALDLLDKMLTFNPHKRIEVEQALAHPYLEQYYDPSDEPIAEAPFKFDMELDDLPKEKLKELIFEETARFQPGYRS
Also: test concentration or dose not given here.

Row | Binder | % activity (HIPK3(h)) | % activity (CaMKIIβ(h)) | % activity (PDGFRα(D842V)(h)) | % activity (PKCµ(h)) | % activity (SGK2(h)) | % activity (Yes(h)) | % activity (Txk(h)) | % activity (EphA7(h)) | % activity (Snk(h)) | % activity (TSSK1(h)) | % activity (CSK(h)) | % activity (MAPK2(h))
1 | FAKLAARLYRKALARQLGVAA [MMI-0300] | 93% | 2% | 114% | 22% | 56% | 67% | 48% | 159% | 114% | 79% | 49% | 98%
2 | KAFAKLAARLYRKALARQLGVAA [MMI-0400] | 105% | 11% | 118% | 14% | 98% | 14% | 37% | 222% | 131% | 79% | 16% | 93%
